Reference: the Human Domainome abundance scans (Beltran et al. 2025)
± gives the uncertainty stated by the source.

B1: Zinc finger MYM-type protein 6, residues 427 to 504; numbered along this chain, O95789 (parent)
chain: KLKCQHCNHLFATKPELLFYKGKMFLFCGKNCSDEYKKKNKVVAMCDYCKLQKIIKETVRFSGVDKPFCSEVCKFLSA

Variants of: B1
Assay: abundance fitness (aPCA) (normalised: wild type 0, dead -1); higher = more abundant; growth selection in yeast, the domain comes from the species named
Settings: Homo sapiens

KLKCQHCNHLFATKPELLFYKGKMFLFCGKNCSDEYKKKNKVVAMCEYCKLQKIIKETVRFSGVDKPFCSEVCKFLSA and KLKCQHCNHLFATKPELLFYKGKMFLFCGKNCSDEYKKKNKVVAMCDYCKLQKIIKETVRFSGVDKPFCSEHCKFLSA are within error of each other in abundance fitness: -0.125 ± 0.13 for the first, 0.016 ± 0.33 for the second.

Compared with KLKCQHCNHLFATKPELLFYKGKMFLFCGKNCSDEYKKKNKVVAMCDYCKLQKIIKETVRFSGVDKPFCSETCKFLSA, KLKCQHCNHLFALKPELLFYKGKMFLFCGKNCSDEYKKKNKVVAMCDYCKLQKIIKETVRFSGVDKPFCSEVCKFLSA is lower in abundance fitness: 0.216 ± 0.1 for the first, -0.176 ± 0.034 for the second.

KLKCQHCNHLFAYKPELLFYKGKMFLFCGKNCSDEYKKKNKVVAMCDYCKLQKIIKETVRFSGVDKPFCSEVCKFLSA and KLKCQHCNHLFASKPELLFYKGKMFLFCGKNCSDEYKKKNKVVAMCDYCKLQKIIKETVRFSGVDKPFCSEVCKFLSA are within error of each other in abundance fitness: -0.029 ± 0.073 for the first, -0.148 ± 0.052 for the second.

Going from KLKCQHCNHLFATKPELLFYKGKMFLFCGKNCSDEYKMKNKVVAMCDYCKLQKIIKETVRFSGVDKPFCSEVCKFLSA to KLKCQHCNHLFATKPELLFYKGKMFLFCGKNCSDEYKKKNKVVAMCDYCELQKIIKETVRFSGVDKPFCSEVCKFLSA, the abundance fitness falls from -0.063 ± 0.057 to -0.363 ± 0.14.

KLWCQHCNHLFATKPELLFYKGKMFLFCGKNCSDEYKKKNKVVAMCDYCKLQKIIKETVRFSGVDKPFCSEVCKFLSA and KLDCQHCNHLFATKPELLFYKGKMFLFCGKNCSDEYKKKNKVVAMCDYCKLQKIIKETVRFSGVDKPFCSEVCKFLSA are within error of each other in abundance fitness: -0.243 ± 0.042 for the first, -0.186 ± 0.079 for the second.

Going from KLCCQHCNHLFATKPELLFYKGKMFLFCGKNCSDEYKKKNKVVAMCDYCKLQKIIKETVRFSGVDKPFCSEVCKFLSA to KLLCQHCNHLFATKPELLFYKGKMFLFCGKNCSDEYKKKNKVVAMCDYCKLQKIIKETVRFSGVDKPFCSEVCKFLSA, the abundance fitness rises from -0.163 ± 0.053 to -0.073 ± 0.036.

Compared with KLKCQHCNHLFATKPELLFYKGKMFLFCGKNCSDEYKKKNKVVAMGDYCKLQKIIKETVRFSGVDKPFCSEVCKFLSA, KLKCQHCNHLFATKPELLFYKGKMFLFCGKNCSDEYKKKNKVVAMCDYCKDQKIIKETVRFSGVDKPFCSEVCKFLSA is higher in abundance fitness: -0.629 ± 0.094 for the first, 0.345 ± 0.32 for the second.

First: KLKCQHCNHLFATKPELLFYKGKMFLFCGKNCSDEYKKKNKVVAMCDYCKWQKIIKETVRFSGVDKPFCSEVCKFLSA
Second: KLKCQHCNHLFATKPELLFYKGKMFLFCAKNCSDEYKKKNKVVAMCDYCKLQKIIKETVRFSGVDKPFCSEVCKFLSA
The abundance fitness of the first is lower: -0.806 ± 0.13 for the first, -0.033 ± 0.029 for the second.

First: KLKCQHCNHLFATKPELLFYKGKMFLFCGKNCSDEYKKKNKVVAMCDYCKLQKIIKETVRFSGVDKPFCSEVCVFLSA
Second: KLKCQHCNHLFATKPELLFYKGKMFLFCGKNCSDEYKKKNKVVAMCDYCKLQKIIKETVRFSGVDKPFCSEVCRFLSA
The abundance fitness of the first is lower: -0.674 ± 0.14 for the first, -0.298 ± 0.12 for the second.

KLKCQHCNHLFATKPELLFYKGKMFLFCGKNCSDEYKKKNKVVAMCDYCKLQKIIKETVRFSGVDKPFCSEVCSFLSA and KLKCQHCNHLFATKPELLFYKGKMFLFCGKNCSDEYKKKNKVVAMCDYCKLQKIIKETVRFSGVDKPFCSEVCEFLSA are within error of each other in abundance fitness: -0.705 ± 0.2 for the first, -0.39 ± 0.16 for the second.

KLKCQHCNHLFATKPELLFYKGKMFLFCGKNCSDEYKKKNKVVAMCDYCKLQKIIKETVRFSGVDKPFCSGVCKFLSA and KLKCQHCNHLFATKPELLFYKGKMFLFCGKNCSDEYKKKNKVGAMCDYCKLQKIIKETVRFSGVDKPFCSEVCKFLSA are within error of each other in abundance fitness: -0.292 ± 0.092 for the first, -0.224 ± 0.094 for the second.

First: KLKCQHCNHLFATKPELLFYKGKMFLFCGKNCSDEYKKKNKVAAMCDYCKLQKIIKETVRFSGVDKPFCSEVCKFLSA
Second: KLKCQHCNHLFATKPELLFYKGKMFLFCGKVCSDEYKKKNKVVAMCDYCKLQKIIKETVRFSGVDKPFCSEVCKFLSA
The abundance fitness of the first is lower: -0.423 ± 0.19 for the first, -0.077 ± 0.031 for the second.

Going from KLKCQHCNHLFATKPELLFYKGKMFLFCGKNCSDEYKKKNKVVAMCDYCKLQKIIKETVRFSGVDKPFCSEVCKFLSC to KLKCQHCNHLFATKPELLDYKGKMFLFCGKNCSDEYKKKNKVVAMCDYCKLQKIIKETVRFSGVDKPFCSEVCKFLSA, the abundance fitness rises from -0.897 ± 0.43 to 0.126 ± 0.056.

KLKCQHCNHLFTTKPELLFYKGKMFLFCGKNCSDEYKKKNKVVAMCDYCKLQKIIKETVRFSGVDKPFCSEVCKFLSA and KLKCQHCNHLFATKPELLFYKGKMFLFCGKNCSDEYKKKNKVVAHCDYCKLQKIIKETVRFSGVDKPFCSEVCKFLSA are within error of each other in abundance fitness: -0.056 ± 0.043 for the first, -0.345 ± 0.36 for the second.

Compared with KLKCQHCNHLFATKPELLFYKGKMFLFCGKNCSDEYKKKNKVVAKCDYCKLQKIIKETVRFSGVDKPFCSEVCKFLSA, KLKCQHTNHLFATKPELLFYKGKMFLFCGKNCSDEYKKKNKVVAMCDYCKLQKIIKETVRFSGVDKPFCSEVCKFLSA is lower in abundance fitness: -0.237 ± 0.18 for the first, -0.792 ± 0.089 for the second.

KLKCQHCNHLFATKPRLLFYKGKMFLFCGKNCSDEYKKKNKVVAMCDYCKLQKIIKETVRFSGVDKPFCSEVCKFLSA and KLKCQHCNHLFATKPELLFYKGKWFLFCGKNCSDEYKKKNKVVAMCDYCKLQKIIKETVRFSGVDKPFCSEVCKFLSA are within error of each other in abundance fitness: -0.102 ± 0.029 for the first, -0.065 ± 0.034 for the second.

KLKCQTCNHLFATKPELLFYKGKMFLFCGKNCSDEYKKKNKVVAMCDYCKLQKIIKETVRFSGVDKPFCSEVCKFLSA and KLKCQHCNHLFATKPELLFYKGKMFLFCGKNCSDEYKKKNKVVAMCDYCKLQKIIKEVVRFSGVDKPFCSEVCKFLSA are within error of each other in abundance fitness: -0.079 ± 0.11 for the first, 0.031 ± 0.1 for the second.

For KLKCQHCNHLFATKPELLFYKGKMFGFCGKNCSDEYKKKNKVVAMCDYCKLQKIIKETVRFSGVDKPFCSEVCKFLSA, the abundance fitness was 0.125 ± 0.029.
